Laboratory results reported in US5824638A, “Oral insulin delivery” (Shire Laboratories, Inc., priority 1995, dated 1998).

Tested on: Caco-2 cells
Assay: Transport of insulin across Caco-2 cell monolayers (Transwell, apical to basal, RIA)
Type: in vitro ADME, human
Conditions: initial transport experiments, data not shown
Description: The Caco-2 cell line has been established as the primary screening model for oral peptide delivery. Caco-2 cells are derived from a colon cancer and differentiate in culture to form intestinal epithelium similar to that found in the small intestine. The cells form a monolayer with many of the specific properties of the epithelial lining of the intestine: they form a brush border with normal enzymes, they form tight junctions between cells, and they acquire the barrier properties of an enterocyte sheet. When grown on permeable supports these cells can be used to screen drug microemulsion formulations.
Caco-2 colon carcinoma cells were obtained from American Type Culture Collection (Rockville, Md.) and maintained in culture in high glucose DMEM with 10% fetal calf serum, plus pen/strep, at 37° C., in 5% CO2. Cells were subcultured roughly every 5-7 days, 1:3 in T75 flasks, or when cells were 80-90% confluent, as determined by visual inspection. […]
For transport determinations, insulin transport enhancers were added to HBSS plus calcium and magnesium. […] Transport was measured by taking aliquots from the lower compartment, which was in contact with the basal surface of the cells. […] Aliquots were removed from each well and insulin levels determined by RIA and HPLC. Transport was calculated as percent transport per hour from top to bottom. […]

For “^125 I labeled insulin: iodine-125 labeled insulin used in initial transport experiments”, which “Transport of labeled insulin across Caco-2 cells” value is on record?
The value was “no increase in transport”.
